Legend:
[1] = molecular target: the molecule itself; experiment: native gel or EMSA; purified bovine liver catalase on native 12% polyacrylamide gel, 40 mM Tris-glycine pH 8.3, 4°C; band compared with a 244 kDa standard; dismutase and tellurite reductase activities stained in situ
[2] = molecular target: the molecule itself; experiment: native gel or EMSA; crude extracts of E. coli Top10 (pCAT) on native 12% polyacrylamide gel, 40 mM Tris-glycine pH 8.3, 4°C; catalase found by H2O2 dismutase and tellurite reductase activity staining in situ

B1: bovine liver catalase (enzyme, UniProt P00432 1-527, looked up)
chain: MADNRDPASDQMKHWKEQRAAQKPDVLTTGGGNPVGDKLNSLTVGPRGPLLVQDVVFTDEMAHFDRERIPERVVHAKGAGAFGYFEVTHDITRYSKAKVFEHIGKRTPIAVRFSTVAGESGSADTVRDPRGFAVKFYTEDGNWDLVGNNTPIFFIRDALLFPSFIHSQKRNPQTHLKDPDMVWDFWSLRPESLHQVSFLFSDRGIPDGHRHMNGYGSHTFKLVNANGEAVYCKFHYKTDQGIKNLSVEDAARLAHEDPDYGLRDLFNAIATGNYPSWTLYIQVMTFSEAEIFPFNPFDLTKVWPHGDYPLIPVGKLVLNRNPVNYFAEVEQLAFDPSNMPPGIEPSPDKMLQGRLFAYPDTHRHRLGPNYLQIPVNCPYRARVANYQRDGPMCMMDNQGGAPNYYPNSFSAPEHQPSALEHRTHFSGDVQRFNSANDDNVTQVRTFYLKVLNEEQRKRLCENIAGHLKDAQLFIQKKAVKNFSDVHPEYGSRIQALLDKYNEEKPKNAVHTYVQHGSHLSAREKANL
notes: catalase (EC 1.11.1.6) from bovine liver, commercial purified enzyme; the legend calls it a tetramer of 255 kDa; also called bovine catalase; catalase (C-9322); source: bought: Sigma (C-9322), purified
stoichiometry N [1]: 4

B2: S. epidermidis CH catalase (product of the katA gene) expressed from plasmid pCAT (enzyme, Staphylococcus epidermidis CH, UniProt Q2PUJ9 1-504, looked up)
chain: MSKQDGKLTGLFGAPVSDRENSMTAGRRGPLLMQDVYYLEQISHFDREVIPERRMHAKGSGAFGTFTVTNDITQYTNAKIFSEVGKQTEMFARFSTVSGERGAADLERDIRGFALKFYTEDGNWDLVGNNTPVFFFRDPKLFISLNRAVKRDPRTNMRSAQNNWDFWTGLPEALHQVTILMSDRGMPKGFRNMHGFGSHTYSMYNDKGERVWVKYHFRTQQGIENYTDEEAAKIVGMDRDSSQRDLYNAIENGDYPKWKMYIQVMTEEQAKNHPDNPFDLTKVWYKKDYPLIEVGEFELNRNPENYFLDVEQAAFAPTNIVPGLDYSPDKMLQGRLFSYGDAQRYRLGVNHWQIPVNQPKGVGVENLCPFSRDGQMRFLDNNQGGGPHYYPNNQGIYESQPEHKKPPFPTDGDGYEYNYRQDDDNYFEQPGKLFRLQSEDAKERIFTNTANAMDGVSKDVKVRHIRHCYKADPEYGKGVAKALDIDINQIDLETNQDETYENFK
notes: catalase KatA of Staphylococcus epidermidis strain CH; The coding region was amplified with primers from the ATG to the stop codon; The 1,515 bp gene is deposited as GenBank DQ301862 and differs by 15 bp from its homolog SE1016 in strain ATCC12228; Cloned with the pBAD TOPO TA Expression Kit; also called S. epidermidis catalase; 60 kDa protein; source: E. coli Top10 carrying pCAT (pBAD vector), …
stoichiometry N [2]: 4

Source: article PMC1762332, “Catalases Are NAD(P)H-Dependent Tellurite Reductases” (PLoS ONE, 2006)
